Test results reported in patent US20250154198A1, “PEPTIDE INHIBITORS OF INTERLEUKIN-23 RECEPTOR” (Zealand Pharma A/S, priority 2021, published 2025).
*1 amine or outer side, *2 acyl side, *3 side chain or, on linkers, in order; H or OH if unused. Bridges are numbered along the chain shown (N, C = ends). Where no end group is shown, it is not given here. [ ]: non-standard residue; d: D form. 1,3‑dibromopropan‑2‑one = linker (CAS 816-39-7) joining two Cys as 1,3-dithio-propan-2-one bridge -SCH2C(=O)CH2S-; 4‑(2-Aminoethyl)benzoyl = O=C(c1ccc(CCN[*:1])cc1)[*:2]; Trp(7-Me) = Cc1cccc2c(C[C@H](N)C(=O)O)c[nH]c12; Bip = N[C@@H](Cc1ccc(-c2ccccc2)cc1)C(=O)O; 2Nal = N[C@@H](Cc1ccc2ccccc2c1)C(=O)O; AEF = NCCOc1ccc(C[C@H](N)C(=O)O)cc1; αMeR = C[C@](N)(CCCNC(=N)N)C(=O)O; αMeL = CC(C)C[C@](C)(N)C(=O)O; CH2COCH2 = O=C(C[*:1])C[*:2]; 3Amb = NCc1cccc(C(=O)O)c1; Orn = NCCC[C@H](N)C(=O)O; Dab = NCC[C@H](N)C(=O)O

T1: human IL-23R endogenously expressed on DB cells (CRL-2289) (human, UniProt Q5VWK5 24-629)
T1 sequence (looked up): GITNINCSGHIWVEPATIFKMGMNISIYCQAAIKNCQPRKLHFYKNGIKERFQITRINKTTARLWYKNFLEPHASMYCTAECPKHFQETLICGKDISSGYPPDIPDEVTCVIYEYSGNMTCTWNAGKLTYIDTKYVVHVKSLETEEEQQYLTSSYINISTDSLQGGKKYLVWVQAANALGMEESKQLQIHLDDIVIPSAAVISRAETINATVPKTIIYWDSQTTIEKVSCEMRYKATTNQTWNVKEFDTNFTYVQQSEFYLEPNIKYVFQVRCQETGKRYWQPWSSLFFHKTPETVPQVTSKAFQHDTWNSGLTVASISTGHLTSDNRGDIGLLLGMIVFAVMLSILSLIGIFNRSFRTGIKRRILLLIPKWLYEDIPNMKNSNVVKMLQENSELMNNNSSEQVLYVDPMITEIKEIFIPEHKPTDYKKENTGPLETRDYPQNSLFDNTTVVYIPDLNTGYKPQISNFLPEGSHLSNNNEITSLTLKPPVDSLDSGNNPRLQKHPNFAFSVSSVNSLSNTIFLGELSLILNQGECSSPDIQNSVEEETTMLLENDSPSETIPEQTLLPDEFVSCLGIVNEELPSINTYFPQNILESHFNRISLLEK

B1: Compound 70 (peptide)
peptide: [3Amb]SC[Trp(7-Me)]QC[AEF][2Nal][αMeL]ER-NH2
modifications: lactam (positions not given here); linker 3-6 via CH2COCH2; not fully specified (bridges)
B2: Compound 50 (peptide)
peptide: [4‑(2-Aminoethyl)benzoyl]SCWQC[AEF][2Nal][αMeL]ER-NH2
modifications: lactam N-10; linker 3-6 via CH2COCH2
SMILES: CC(C)C[C@]1(C)NC(=O)[C@H](Cc2ccc3ccccc3c2)NC(=O)[C@H](Cc2ccc(OCCN)cc2)NC(=O)[C@@H]2CSCC(=O)CSC[C@H](NC(=O)[C@H](CO)NC(=O)c3ccc(cc3)CCNC(=O)CC[C@@H](C(=O)N[C@@H](CCCNC(=N)N)C(N)=O)NC1=O)C(=O)N[C@@H](Cc1c[nH]c3ccccc13)C(=O)N[C@@H](CCC(N)=O)C(=O)N2
B3: Compound 39 (peptide)
peptide: [3Amb]SCWQC[AEF][2Nal]LER-NH2
modifications: lactam N-10; linker 3-6 via CH2COCH2
SMILES: CC(C)C[C@@H]1NC(=O)[C@H](Cc2ccc3ccccc3c2)NC(=O)[C@H](Cc2ccc(OCCN)cc2)NC(=O)[C@@H]2CSCC(=O)CSC[C@H](NC(=O)[C@H](CO)NC(=O)c3cccc(c3)CNC(=O)CC[C@@H](C(=O)N[C@@H](CCCNC(=N)N)C(N)=O)NC1=O)C(=O)N[C@@H](Cc1c[nH]c3ccccc13)C(=O)N[C@@H](CCC(N)=O)C(=O)N2
B4: Compound 36 (peptide)
peptide: XSCWQCWXLER
HELM: PEPTIDE1{[bAla].S.C.W.Q.C.W.[O=C([C@H](Cc1ccc2ccccc2c1)N[*:1])[*:2]].L.E.R.[am]}|CHEM1{[O=C(C[*:1])C[*:2]]}$PEPTIDE1,PEPTIDE1,1:R1-10:R3|PEPTIDE1,CHEM1,3:R3-1:R1|PEPTIDE1,CHEM1,6:R3-1:R2$$$V2.0
SMILES: CC(C)C[C@@H]1NC(=O)[C@H](Cc2ccc3ccccc3c2)NC(=O)[C@H](Cc2c[nH]c3ccccc23)NC(=O)[C@@H]2CSCC(=O)CSC[C@H](NC(=O)[C@H](CO)NC(=O)CCNC(=O)CC[C@@H](C(=O)N[C@@H](CCCNC(=N)N)C(N)=O)NC1=O)C(=O)N[C@@H](Cc1c[nH]c3ccccc13)C(=O)N[C@@H](CCC(N)=O)C(=O)N2
B5: Compound 69 (peptide)
peptide: [3Amb]SEWQ[Orn][AEF][2Nal][αMeL]ER-NH2
modifications: lactam (positions not given here); lactam 3-6; not fully specified (bridges); printed as [(3-Aminomethyl)benzoyl](1c)*SE(2c)WQ[Orn](2c)[Y(2-aminoethoxy)][2-Nal][2-Me-Leu]E(1c)R-[NH2]
B6: Compound 56 (peptide)
peptide: Ac-DEQCWQC[2Nal]W[αMeL]KR-NH2
modifications: lactam 2-11; linker 4-7 via CH2COCH2
SMILES: CC(=O)N[C@@H](CC(=O)O)C(=O)N[C@H]1CCC(=O)NCCCC[C@@H](C(=O)N[C@@H](CCCNC(=N)N)C(N)=O)NC(=O)[C@](C)(CC(C)C)NC(=O)[C@H](Cc2c[nH]c3ccccc23)NC(=O)[C@H](Cc2ccc3ccccc3c2)NC(=O)[C@@H]2CSCC(=O)CSC[C@H](NC(=O)[C@H](CCC(N)=O)NC1=O)C(=O)N[C@@H](Cc1c[nH]c3ccccc13)C(=O)N[C@@H](CCC(N)=O)C(=O)N2
B7: Compound 44 (peptide)
peptide: [3Amb]SCWQC[AEF][2Nal][αMeL]ES-NH2
modifications: lactam N-10; linker 3-6 via CH2COCH2
SMILES: CC(C)C[C@]1(C)NC(=O)[C@H](Cc2ccc3ccccc3c2)NC(=O)[C@H](Cc2ccc(OCCN)cc2)NC(=O)[C@@H]2CSCC(=O)CSC[C@H](NC(=O)[C@H](CO)NC(=O)c3cccc(c3)CNC(=O)CC[C@@H](C(=O)N[C@@H](CO)C(N)=O)NC1=O)C(=O)N[C@@H](Cc1c[nH]c3ccccc13)C(=O)N[C@@H](CCC(N)=O)C(=O)N2
B8: Compound 38 (peptide)
peptide: [3Amb]SCWQC[AEF][2Nal][αMeL]ER-NH2
modifications: lactam N-10; linker 3-6 via CH2COCH2
SMILES: CC(C)C[C@]1(C)NC(=O)[C@H](Cc2ccc3ccccc3c2)NC(=O)[C@H](Cc2ccc(OCCN)cc2)NC(=O)[C@@H]2CSCC(=O)CSC[C@H](NC(=O)[C@H](CO)NC(=O)c3cccc(c3)CNC(=O)CC[C@@H](C(=O)N[C@@H](CCCNC(=N)N)C(N)=O)NC1=O)C(=O)N[C@@H](Cc1c[nH]c3ccccc13)C(=O)N[C@@H](CCC(N)=O)C(=O)N2
B9: Compound 68 (peptide)
peptide: [3Amb]S[Orn]WQE[AEF][2Nal][αMeL]ER-NH2
modifications: lactam (positions not given here); lactam 3-6; not fully specified (bridges); printed as [(3-Aminomethyl)benzoyl](1c)*S[Orn](2c)WQE(2c)[Y(2-aminoethoxy)][2-Nal][2-Me-Leu]E(1c)R-[NH2]
B10: Compound 26 (peptide)
peptide: Ac-KSC[Bip]QCW[2Nal]LER-NH2
modifications: lactam 1-10; linker 3-6 via CH2COCH2
SMILES: CC(=O)N[C@H]1CCCCNC(=O)CC[C@@H](C(=O)N[C@@H](CCCNC(=N)N)C(N)=O)NC(=O)[C@H](CC(C)C)NC(=O)[C@H](Cc2ccc3ccccc3c2)NC(=O)[C@H](Cc2c[nH]c3ccccc23)NC(=O)[C@@H]2CSCC(=O)CSC[C@H](NC(=O)[C@H](CO)NC1=O)C(=O)N[C@@H](Cc1ccc(-c3ccccc3)cc1)C(=O)N[C@@H](CCC(N)=O)C(=O)N2
B11: Compound 42 (peptide)
peptide: [3Amb]SCWQC[AEF][2Nal][αMeL]E[αMeR]-NH2
modifications: lactam N-10; linker 3-6 via CH2COCH2
SMILES: CC(C)C[C@]1(C)NC(=O)[C@H](Cc2ccc3ccccc3c2)NC(=O)[C@H](Cc2ccc(OCCN)cc2)NC(=O)[C@@H]2CSCC(=O)CSC[C@H](NC(=O)[C@H](CO)NC(=O)c3cccc(c3)CNC(=O)CC[C@@H](C(=O)N[C@@](C)(CCCNC(=N)N)C(N)=O)NC1=O)C(=O)N[C@@H](Cc1c[nH]c3ccccc13)C(=O)N[C@@H](CCC(N)=O)C(=O)N2

Molecular target: T1, human IL-23R endogenously expressed on …
Assay: cell-based or functional assay

Binder | IC50 (pSTAT3)
B1 | 8.43 nM
Ac-DCQCWQC[2Nal]W[αMeL]CR-NH2 (linker 2-11, 4-7 via CH2COCH2) [Compound 62] | > 1 µM
H-LCSCWQCWWLCR-NH2 (linker 2-11, 4-7 via CH2COCH2) [Compound 2] | 755 nM
H-DCSEWQKWWLCR-NH2 (linker 2-11 via 1,3‑dibromopropan‑2‑one; lactam 4-7) [Compound 5] | > 1 µM
B2 | 51.1 nM
B3 | 19.6 nM
B4 | > 1 µM
B5 | 41.1 nM
B6 | > 1 µM
[(4-Aminomethyl)benzoyl]SCWQC[AEF][2Nal][αMeL]ER-NH2 (lactam N-10; linker 3-6 via CH2COCH2) [Compound 49] | 20.3 nM
[3‑(4-Aminophenyl)propanoyl]SCWQC[AEF][2Nal][αMeL]ER-NH2 (lactam N-10; linker 3-6 via CH2COCH2) [Compound 51] | 68.1 nM
B7 | 82.3 nM
Ac-DESCAQCWWLKR-NH2 (lactam 2-11; linker 4-7 via 1,3‑dibromopropan‑2‑one) [Compound 13] | > 1 µM
Ac-DESCWQCWALKR-NH2 (lactam 2-11; linker 4-7 via 1,3‑dibromopropan‑2‑one) [Compound 15] | > 1 µM
Ac-DESCWQCAWLKR-NH2 (lactam 2-11; linker 4-7 via 1,3‑dibromopropan‑2‑one) [Compound 14] | > 1 µM
[3Amb]SEWQ[Dab][AEF][2Nal][αMeL]ER-NH2 (lactam (positions not given here); lactam 3-6; not fully specified (bridges)) [Compound 67] | 35.3 nM
B8 | 19.3 nM
B9 | 63.9 nM
B10 | > 1 µM
B11 | 24.7 nM
Ac-DCQCWQCYW[αMeL]CR-NH2 (linker 2-11, 4-7 via CH2COCH2) [Compound 63] | > 1 µM
